Assay: In vitro stability in human serum (LC/MS/MS)
Details: human
Protocol: Test compound is added to 1.5 mL human serum in a 96-wells deepwell plate in a final concentration of 750 nM. The compound is mixed and immediately thereafter a 100 μl sample is harvested in a 96-wells 2D-tuberack (T=0 sample). The 2 D-tubes are closed with rubber tube caps and the sample plate is stored at −20° CF. in the freezer. The deepwell plate is put into an incubator which was set at humidified (95%) atmosphere at 5-7% CO2 and 37° C. for an incubation period of maximum 240 h. During this incubation period, samples of 100 μl are collected on various time intervals, dependent on the test compound used; time points 0, 1, 2, 3, 6, 24, 48, 72 h in case of Kisspeptides and 0, 3, 6, 24, 48, 72, 168, 240 h in case of kisspeptide-pentasaccharide conjugates. Sample plates are put on ice in case of sampling and stored at −20° C. until analysis by LC/MS/MS.
For LC-MS/MS analysis, the compounds are separated over an XTerra RP8 column and using a gradient mobile phase of ammonium acetate buffer and acetonitrile at a fixed column temperature. MS/MS detection is done with a triple quadrupole mass spectrometer and employing negative ion electrospray ionization. The mass spectrometer is set up to achieve a known degree of in source fragmentation, where the initially formed multiply charged negative ions lose one or more SO3 molecules. The most abundant of these secondary ions are then subjected to a common MS/MS experiment in which a single SO3 loss is monitored. The Q1 and Q3 mass filter settings for this MS/MS experiment have commonly been determined in method development. […] Internal standardization is accomplished by adding a different conjugate of approximately the same size to the bioanalytical samples.
The rate of compound loss is expressed as a half-life (plasma t^1/2). The t^1/2 for the test compound can be determined by plotting the natural logarithm (In) of the measured concentrations against time and fitting the line through all data points. The gradient of this line is the first order rate constant (k) for substrate disappearance and is determined by regression analysis. The rate constant is converted to a half-life according to the following equation: In vitro half-life(t^1/2)=−ln 2/k
Work on `CNC(=N)NCCC[C@H](NC(=O)[C@H](CC(C)C)n1cc(CNC(=O)[C@H](Cc2ccccc2)NC(=O)[C@@H](NC(=O)[C@H](CC(N)=O)NC(=O)[C@H](Cc2c[nH]c3ccccc23)NC(=O)[C@H](CC(N)=O)NC(=O)[C@@H](Cc2ccc(O)cc2)NC(=O)CCOCCOCCOCCOCCn2cc(CCC(=O)NCCOCCOCCOCCO[C@H]3[C@H](OC)[C@@H](OC)[C@@H](O[C@H]4[C@H](OC)[C@@H](OC)[C@H](O[C@H]5[C@H](OS(=O)(=O)O)[C@@H](OS(=O)(=O)O)[C@@H](O[C@H]6[C@H](OC)[C@@H](OC)[C@H](O[C@H]7[C@H](OC)[C@@H](OS(=O)(=O)O)[C@@H](OC)O[C@@H]7COS(=O)(=O)O)O[C@H]6C(=O)O)O[C@@H]5COS(=O)(=O)O)O[C@@H]4C(=O)O)O[C@@H]3COS(=O)(=O)O)nn2)[C@@H](C)O)nn1)C(=O)N[C@@H](Cc1ccccc1)C(N)=O` [Conjugate C19] yielded a half-life at 750 nM of 175 h. Compound `CNC(=N)NCCC[C@H](NC(=O)[C@H](CC(C)C)n1cc(CNC(=O)[C@H](Cc2ccccc2)NC(=O)[C@@H](NC(=O)[C@H](CC(N)=O)NC(=O)[C@H](Cc2c[nH]c3ccccc23)NC(=O)[C@H](CC(N)=O)NC(=O)[C@@H](Cc2ccc(O)cc2)NC(=O)CCOCCOCCOCCOCCn2cc(CCC(=O)NCCOCCOCCOCCO[C@H]3[C@H](OC)[C@@H](OC)[C@@H](O[C@H]4[C@H](OC)[C@@H](OC)[C@H](O[C@H]5[C@H](OS(=O)(=O)O)[C@@H](OS(=O)(=O)O)[C@@H](O[C@H]6[C@H](OC)[C@@H](OC)[C@H](O[C@H]7[C@H](OS(=O)(=O)O)[C@@H](OS(=O)(=O)O)[C@@H](OC)O[C@@H]7COS(=O)(=O)O)O[C@H]6C(=O)O)O[C@@H]5COS(=O)(=O)O)O[C@@H]4C(=O)O)O[C@@H]3COS(=O)(=O)O)nn2)[C@@H](C)O)nn1)C(=O)N[C@@H](Cc1ccccc1)C(N)=O` [Conjugate C20] has a half-life at 750 nM greater than 240 h. With `CNC(=N)NCCC[C@H](NC(=O)[C@H](CC(C)C)NC(=O)NNC(=O)[C@H](Cc1ccccc1)NC(=O)[C@@H](NC(=O)[C@H](CC(N)=O)NC(=O)[C@H](Cc1c[nH]c2ccccc12)NC(=O)[C@H](CC(N)=O)NC(=O)[C@H](Cc1ccc(O)cc1)NC(=O)CCCCn1cc(CCC(=O)NCCOCCOCCOCCO[C@H]2[C@H](OC)[C@@H](OC)[C@@H](O[C@H]3[C@H](OC)[C@@H](OC)[C@H](O[C@H]4[C@H](OS(=O)(=O)O)[C@@H](OS(=O)(=O)O)[C@@H](O[C@H]5[C@H](OC)[C@@H](OC)[C@H](O[C@H]6[C@H](OS(=O)(=O)O)[C@@H](OS(=O)(=O)O)[C@@H](OC)O[C@@H]6COS(=O)(=O)O)O[C@H]5C(=O)O)O[C@@H]4COS(=O)(=O)O)O[C@@H]3C(=O)O)O[C@@H]2COS(=O)(=O)O)nn1)[C@@H](C)O)C(=O)N[C@@H](Cc1ccccc1)C(N)=O` [Conjugate C22] the half-life at 750 nM was greater than 240 h. Work on `CNC(=N)NCCC[C@H](NC(=O)[C@H](CC(C)C)NC(=O)CNC(=O)[C@H](Cc1ccccc1)NC(=O)[C@@H](NC(=O)[C@H](CC(N)=O)NC(=O)[C@@H]1C[C@@H](O)CN1C(=O)[C@H](CC(N)=O)NC(=O)[C@H](Cc1ccc(O)cc1)NC(=O)CCOCCOCCOCCOCCn1cc(CCC(=O)NCCOCCOCCOCCO[C@H]2[C@H](OC)[C@@H](OC)[C@@H](O[C@H]3[C@H](OC)[C@@H](OC)[C@H](O[C@H]4[C@H](OS(=O)(=O)O)[C@@H](OS(=O)(=O)O)[C@@H](O[C@H]5[C@H](OC)[C@@H](OC)[C@H](O[C@H]6[C@H](OS(=O)(=O)O)[C@@H](OS(=O)(=O)O)[C@@H](OC)O[C@@H]6COS(=O)(=O)O)O[C@H]5C(=O)O)O[C@@H]4COS(=O)(=O)O)O[C@@H]3C(=O)O)O[C@@H]2COS(=O)(=O)O)nn1)[C@@H](C)O)C(=O)N[C@@H](Cc1ccccc1)C(N)=O` [Conjugate C26] yielded a half-life at 750 nM greater than 240 h.

Reference: US9127038B2, “Kisspeptide-pentasaccharide conjugates” (Merck Sharp & Dohme Corp., priority 2011, dated 2015)
